From the nanobody polyreactivity screen of Harvey et al. (2022)

Assay: yeast display, Sf9 membrane polyspecificity reagent, FACS + sequencing; frameworks hold sequencing errors
How it was run: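 Galactose induction of a Saccharomyces cerevisiae BJ5465 synthetic nanobody display library ran 36–48 hours. The cells were then stained for 1 hour at 4 °C with 10% biotinylated, detergent-solubilized Sf9 membrane reagent, pulled down on streptavidin microbeads and FACS-sorted into low and high (top ~1%) gates on expression and reagent-binding fluorescence. Labels for polyreactivity follow the gate of origin.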

Sequence	polyreactivity (PSR sort gate)
QVQLVESGGGLVQAGGSLRLSCAASGSTFYANAMGWYRQAPGKERELVAAISYSGGGTNYADSVKGRFTISRDNAKNTVYLQMISLKPEDTAVYYCAKRRDYDRYRYKKTSSVRGDYWGQGTQVTVSS	low polyreactivity
QVQLVESGGGLVQAGGSLRLSCAASGFIFWGNAMGWYRQAPGKERELVAAINYSGGRTYYADSVKGRFTISRDNAKNTVYLQMNSLKAEATAVNYCAAKYRYHVSGYDYWGQATQVTVSS	high polyreactivity
QVQLVESRGGLVQAGGSLRLSCAASGLIFWFNTMGWYRQAPGTERELVAAITSGGGSTYYADSVKGRFTISRDIAKNTVYLQKNSLKPEDTAVYYCNAGAGRWRARQWHDYWGQGTQVTVSS	low polyreactivity
QVQLVESGGGLVQAGGSLRLSCAASGFTFKYYVMGWSRQAPGKERELVASLSKRGGSTRYADSVKGRFTISRDNAKTTFYLQMHSLKPEDTAVYYCAAAFVRPPPYVGYSRFDYWGQGTQVTLSS	high polyreactivity
QVQLVESGGGLVQAGGSLRLSCAASGSTFAYNAMGWYRQAPGKERELVAAISGSTTRTYYADSVKGRFTISRDNAKNTVYLQMNSLKPEDTAVYYCAAGIPFRQRLRRYYYWGQGTQVTVSS	high polyreactivity
HVHLVESGGGLVQAGGSLPLSCAASGFIISHYTMGWYRQAPGKERELVAGISWSGGNTYYADFVKGRFTISRDHAKNTVYLQMNSLKPEDTAVYYCNADWIGVPLAYDYWGQGTQVTVSS	low polyreactivity
QVHLVDSGGGLVQAGGSLRLRCAASGSSFNPNAMGLYRQDPGKERELVAAITSGGSTYYADSVKGRFTISRDNAKNTVYLQINSLKQEDTAVYYCNKALTSKDYPVRTVERDYWGQGTKVTVSS	low polyreactivity
QVQLVESGGGLVQAGGSLRLSCAASGSIFSPNAMGWYRQAPGKERELVASITNGGSTYYADSVKGRFTISRDNAKNTVYLQMNSLKPEDTAVYYCAADHNETGLRVKVYEYDYWGQGTQVTVSS	low polyreactivity
QVQLVESGGGLVQARVSLRLSCPASGRIFARYALGSSRQAPGTEREFVAAISRGGSTKYADSEKGRFTISRDNAKNTVYLQMNSLKPEDTAVYYCARQLWGSAYGAYYAGDYWGQGTQVTVSS	low polyreactivity
LVQLQESRGGLVLAGGGLRLSCPESVNIFTYVIMGWYRQQPGKERELVAAITYGTFTNYADSVKGPFTISRDNAKNTVYLHMNCLKPEDTAVYHCAVQSPLIEPRLYYWGQGTQVTVSS	high polyreactivity
QVQLVESGGGLVQAGGSLRLSCAASGLTFYGYAMGWYRQAPGKERELVAAIRWSGGRTYYADSVKGRFTISRDNAKNTVYLQMNSLKPEDTAVYYCAADYSRYYGGDYWGQGTQVTVSS	low polyreactivity
QVQLVESGVGLVQAAGSLRLSCAASGRIFYHYTMGWYRQAPGKERELVAAITSGGSTYYADSVKGRFTISRDNAKNTVYLQMNSLKPEDTAVYYCAAEGYTYYPVYSTRMYYWGQGTQVTVSS	low polyreactivity
QVQLVESGGGLVQAGGSLRLSCAASGSIFGYYAMGWYRPAPGKERQLVAAIDSRGGSTYYADSVKGRFTISRDYEKNTVYLQMNSLKPEDTAVYYWAARLRYPRRGQGDNYWGQGTQVTVSS	low polyreactivity
QVQLVESGGGLVQAGGSLRLSCAASGRIFGPYTMGWYRQAPAKEREFVAAITRRGGSTYYADSVKGRFTISRDNAKNTVYLQMNSLKPEDTAVYYCAAVGLKRSLGYSWGQGTQVTVSS	low polyreactivity
QDQLVDSGGGLLQAGGSLRLSCAASGRIFVWNTMGWYRQAPGKERELVAAITSGGSTTFADSVKGRFTISRDNAKYTVYLQMNSLKPEDTAVYYCNTELDLYHPGDDYWGQGTQVTVSS	high polyreactivity
QVQLVESGGGLVQAGGSLRLSCAASGRIFSLNAMGWYRQAPGKERELVAGIRKRGGSTYYADSVKGRFTISRDNAKNTVYLQMNSLKPEDTAVYYCAAQPALTYRFYYWGQGTQVTVSS	high polyreactivity
QVHLVESGGGLVQAGGSLRLSCAASGSILGSNAMGWYRQAPGKERELVAAISSGGSTDYADSVKVRFTISRDNAKNTVYLQMYCLKPEDTAVYYCAAGFIYHYGLYKIYDYYYWGQGTQVTVSS	low polyreactivity
